This note sets out measurements from article PMC7641744.

Data set [1] relates to T1, RappLS20-His(6) (Bacillus subtilis plasmid pLS20 (pLS20cat)), ORF:c1c32938.
T1 sequence: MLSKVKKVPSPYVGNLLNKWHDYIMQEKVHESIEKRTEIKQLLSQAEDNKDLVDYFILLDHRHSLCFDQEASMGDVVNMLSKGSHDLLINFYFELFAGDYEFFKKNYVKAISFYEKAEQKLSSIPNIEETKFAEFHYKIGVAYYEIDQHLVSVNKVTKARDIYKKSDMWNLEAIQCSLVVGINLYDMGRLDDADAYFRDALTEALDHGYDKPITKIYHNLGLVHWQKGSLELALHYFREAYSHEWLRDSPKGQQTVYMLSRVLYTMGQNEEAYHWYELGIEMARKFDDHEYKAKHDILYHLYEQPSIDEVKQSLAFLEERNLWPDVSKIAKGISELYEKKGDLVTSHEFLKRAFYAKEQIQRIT
Nature of the data set: EMSA.

Data set [2] relates to T2, RcopLS20-His(6) (Bacillus subtilis plasmid pLS20 (pLS20cat)), ORF:72252162.
T2 sequence: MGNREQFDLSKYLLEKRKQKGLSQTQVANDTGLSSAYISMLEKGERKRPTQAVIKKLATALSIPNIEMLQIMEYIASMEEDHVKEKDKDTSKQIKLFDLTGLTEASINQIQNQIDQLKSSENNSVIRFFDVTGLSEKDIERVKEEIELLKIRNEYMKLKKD
Nature of the data set: EMSA.

Data set [3] has the same test system. Nature of the data set: analytical ultracentrifugation.
Data set [4] concerns the target Rap_(pLS20)-His(6) (Bacillus subtilis plasmid pLS20). Nature of the data set: AUC.
The target is the same in data set [5]. Nature of the data set: AUC. This is another data set of the same source.
Data set [6] shares this target. Nature of the data set: AUC. The source holds these as a separate data set.
Data set [7] has as its target Rco_(pLS20)-His(6) (Bacillus subtilis plasmid pLS20). Nature of the data set: AUC.

Where two headings read alike, the source gives them in different places.

Take “CGCGGATCCTATACCACCTCGCAAAATAAACCCTGTATACGGTCTAGCGCTTACAATTTTTCGCGTTTTTTTTACTCAGTGAAAAAAACCGGTTAAAAATTTCACTGAAATACTTTACAGTTAAAAAAATGTCTGTTATCTTAGTGAAAGAGTCAGTGAAAAAAATGCAGAATAAGGTTTTTTGTTGTTAATCTCAAACAATTTCTGTGTAAAAAGAAC (double strand) [Fragment FIII (219 bp, operator OII)]”: the values for the binding entry in data set [1], in data set [2] and in data set [3] were “no binding”, “binds” and “binds”, respectively.

Regarding Phr*_(pLS20) (peptide), the dissociation constant (Kd) in data set [4] worked out at 2.1 µM.

Regarding PhrF*-I5Y (peptide), the Kd in data set [4] was determined as 4.2 µM.

In the case of PhrF*-R2K (peptide), the dissociation constant (Kd) in data set [4] turned out to be 4.2 µM. On to Rap_(pLS20)-His(6) (natural protein), for which the stoichiometry N is 4 in data set [5], 2 in data set [6] and 4 in data set [4]. For the molecule Rco_(pLS20)-His(6) (natural protein), the stoichiometry N stood at 4 in data set [7] and 2.1 in data set [4] (scale: mol of Rco_(pLS20) per mol of Rap_(pLS20)).

QRGMI [PhrF*]: in data set [4], the dissociation constant Kd is 5.3 µM.
